Data reported in PMC3715468, “Structural and Functional Characterisation of TesA - A Novel Lysophospholipase A from Pseudomonas aeruginosa” (PLoS ONE, 2013).

Columns and labels:
Assay in all cases: purified protein
Format in all cases: biochemical, Pseudomonas aeruginosa
[1] = system: CCCCCCCCCCCC(=O)OC[C@@H](O)COP(=O)([O-])OCC[N+](C)(C)C; settings: pH 7.2; 37.0 °C
[2] = system: CCCCCCCCCCCCCCCC(=O)OC[C@@H](O)COP(=O)([O-])OCC[N+](C)(C)C; settings: 20 mM Tris-HCl pH 7.2, 37 °C, 0.25% (v/v) Triton X-100, 1.5 mM NaN3, 30 min
[3] = system: CCCCCC(=O)OC[C@@H](O)COP(=O)([O-])OCC[N+](C)(C)C; settings: pH 7.2; 37.0 °C

Q: Which results are given for TesA (Pseudomonas aeruginosa PAO1)?
A: Km [1]: 1780 ± 170 µM; kcat/Km [1]: 1.1e+06 M⁻¹ s⁻¹; Km [2]: 2040 ± 180 µM; kcat [2]: 921 s⁻¹; kcat/Km [2]: 450000 M⁻¹ s⁻¹; Km [3]: 7220 ± 920 µM; kcat/Km [3]: 110000 M⁻¹ s⁻¹
